Measured values as given in patent publication US20250368978A1, “SQUALENE HOPENE CYCLASE VARIANTS FOR PRODUCING SCLAREOLIDE” (INTERNATIONAL FLAVORS & FRAGRANCES INC., priority 2022, published 2025).

Assay: SHC variant screening reactions: conversion of HFA to sclareolide by freeze-dried whole cells, GC analysis
Type: biochemical, Gluconobacter morbifer
Settings: for Fold improvement (sclareolide production): based on % peak area, relative to V45L+Q54E+I278T+T326S variant, no metal ions; for Fold improvements (sclareolide production): 20 mg/mL HFA, 50% enzyme loading, relative to initial mutant
Method: SHC Variant Enzyme Expression. Wild-type and the GmSHC variants of Table 5 were individually cloned into pET28a(+). These DNA constructs were transformed into Lemo21 (DE3) E. coli and plated onto agar plates containing Kanamycin. These were incubated overnight at 37° C. A single bacterial colony was picked and used to inoculate 10 mL LB+Kanamycin in a 50 mL falcon tube. This primary culture was incubated overnight at 37° C. with agitation. These cultures (10 mL) were used to inoculate 1L LB+Kanamycin in a shake flask, which was subsequently incubated at 37° C. at 180 rpm for about 4 hours. Protein expression was then induced with the addition of 0.4 mM IPTG and 0.2 mM L-rhamnose. The incubator temperature was lowered to 25° C. and the cultures further incubated at 180 rpm overnight. The next day, the cultures were centrifuged at 4000 rpm for 10 minutes and the supernatant discarded. Cell pellets were resuspended in 0.1 M Potassium phosphate buffer pH 7.4 and exposed to 1 round of freeze/thawing before lyophilization and then use in the reaction assay.
SHC Variant Screening Reactions. Sodium citrate buffer 0.2 M, pH 5 was prepared and 500 μL of this buffer was added to freeze-dried whole cells of each variant (from 1 L shake flask fermentation of E. coli transformed with desired variant plasmid). The results were obtained with an enzyme loading of 50% (w/w). Subsequently, HFA (20 mg/mL) was added to the buffer/enzyme mix. The reactions were incubated at 25° C. with agitation for 72 hours. To stop the reaction and extract the products, a 2X volume of 3:2, heptane: isopropanol was added to each reaction. These were then incubated at 37° C. for 30 minutes with agitation to mix thoroughly. The reactions were centrifuged for 10 minutes at 4000 rpm to pellet any cellular material. The upper organic layer was then removed and placed in a clean gas chromatography (GC) vial.
GC Analysis Method. A GC analytical method was used to detect each of the starting materials and products used in the screening reactions. Due to the volume of samples generated, a fast method was developed with a run time of only 4.5 minutes.
No metal ions were included in the reaction.
Further analysis was conducted to identify one or more optimal SHC enzymes. In particular, substrate loading was increased to 20 mg/mL and incubation with a reduced enzyme loading (50%).

[1] = 10 mg/mL HFA, 100% enzyme loading

B1: WT: wild-type squalene hopene cyclase from Gluconobacter morbifer, SEQ ID NO: 1 / SEQ ID NO: 2 (protein)
chain: MSPADISTKSSSFQRLDNMLPEAVSSACDWLIDQQKPDGHWVGPVESNACMEAQWCLALWFLGQEDHPLRPRLAQALLEMQREDGSWGIYVGADHGDINTTVEAYAALRSMGYAADMPIMAKSAAWIQQKGGLRNVRVFTRYWLALIGEWPWDKTPNLPPEIIWLPDNFIFSIYNFAQWARATMMPLTILSARRPSRPLLPENRLDGLFPEGRENFDYELPVKGEEDLWGRFFRAADKGLHSLQSFPVRRFVPREAAIRHVIEWIIRHQDADGGWGGIQPPWIYGLMALSVEGYPLHHPVLAKAMDALNDPGWRRDKGDASWIQATNSPVWDTMLAVLALHDAGAEDRYSPQMDKAIGWLLDRQVRVKGDWSIKLPDTEPGGWAFEYANDKYPDTDDTAVALIALAGCRHRPEWRERDIEGAISRGVNWLLAMQSSSGGWGAFDKDNNRSILTKIPFCDFGEALDPPSVDVTAHVLEAFGLLGISRNHPSVQKALAYIRSEQERNGAWFGRWGVNYVYGTGAVLPALAAIGEDMTQPYIVRACDWLMSVQQENGGWGESCASYMDINAVGHGVATASQTAWALIGLLAAKRPKDREAIARGCQFLIERQEDGSWTEEEYTGTGFPGYGVGQAIKLDDPSLPDRLLQGAELSRAFMLRYDLYRQYFPVMALSRARRMMKEDASAAA
modifications: Gluconobacter morbifer
conversion of HFA to sclareolide [1]: did not show any conversion

B2: V45L + Q54E + V222K + I278T + T326S: GmSHC variant with these substitutions relative to SEQ ID NO: 2 (protein)
chain: MSPADISTKSSSFQRLDNMLPEAVSSACDWLIDQQKPDGHWVGPLESNACMEAEWCLALWFLGQEDHPLRPRLAQALLEMQREDGSWGIYVGADHGDINTTVEAYAALRSMGYAADMPIMAKSAAWIQQKGGLRNVRVFTRYWLALIGEWPWDKTPNLPPEIIWLPDNFIFSIYNFAQWARATMMPLTILSARRPSRPLLPENRLDGLFPEGRENFDYELPKKGEEDLWGRFFRAADKGLHSLQSFPVRRFVPREAAIRHVIEWIIRHQDADGGWGGTQPPWIYGLMALSVEGYPLHHPVLAKAMDALNDPGWRRDKGDASWIQASNSPVWDTMLAVLALHDAGAEDRYSPQMDKAIGWLLDRQVRVKGDWSIKLPDTEPGGWAFEYANDKYPDTDDTAVALIALAGCRHRPEWRERDIEGAISRGVNWLLAMQSSSGGWGAFDKDNNRSILTKIPFCDFGEALDPPSVDVTAHVLEAFGLLGISRNHPSVQKALAYIRSEQERNGAWFGRWGVNYVYGTGAVLPALAAIGEDMTQPYIVRACDWLMSVQQENGGWGESCASYMDINAVGHGVATASQTAWALIGLLAAKRPKDREAIARGCQFLIERQEDGSWTEEEYTGTGFPGYGVGQAIKLDDPSLPDRLLQGAELSRAFMLRYDLYRQYFPVMALSRARRMMKEDASAAA
modifications: Gluconobacter morbifer
Fold improvement (sclareolide production) [1]: 5.4 Fold
Fold improvements (sclareolide production): 12 Fold

B3: V45L + Q54E + M184T + R249R + I278T + T326S: GmSHC variant with these substitutions relative to SEQ ID NO: 2 (protein)
chain: MSPADISTKSSSFQRLDNMLPEAVSSACDWLIDQQKPDGHWVGPLESNACMEAEWCLALWFLGQEDHPLRPRLAQALLEMQREDGSWGIYVGADHGDINTTVEAYAALRSMGYAADMPIMAKSAAWIQQKGGLRNVRVFTRYWLALIGEWPWDKTPNLPPEIIWLPDNFIFSIYNFAQWARATTMPLTILSARRPSRPLLPENRLDGLFPEGRENFDYELPVKGEEDLWGRFFRAADKGLHSLQSFPVRRFVPREAAIRHVIEWIIRHQDADGGWGGTQPPWIYGLMALSVEGYPLHHPVLAKAMDALNDPGWRRDKGDASWIQASNSPVWDTMLAVLALHDAGAEDRYSPQMDKAIGWLLDRQVRVKGDWSIKLPDTEPGGWAFEYANDKYPDTDDTAVALIALAGCRHRPEWRERDIEGAISRGVNWLLAMQSSSGGWGAFDKDNNRSILTKIPFCDFGEALDPPSVDVTAHVLEAFGLLGISRNHPSVQKALAYIRSEQERNGAWFGRWGVNYVYGTGAVLPALAAIGEDMTQPYIVRACDWLMSVQQENGGWGESCASYMDINAVGHGVATASQTAWALIGLLAAKRPKDREAIARGCQFLIERQEDGSWTEEEYTGTGFPGYGVGQAIKLDDPSLPDRLLQGAELSRAFMLRYDLYRQYFPVMALSRARRMMKEDASAAA
modifications: Gluconobacter morbifer
Fold improvement (sclareolide production) [1]: 3.3 Fold

B4: V45L + Q54E + V222K + I278S + T326S: GmSHC variant with these substitutions relative to SEQ ID NO: 2 (protein)
chain: MSPADISTKSSSFQRLDNMLPEAVSSACDWLIDQQKPDGHWVGPLESNACMEAEWCLALWFLGQEDHPLRPRLAQALLEMQREDGSWGIYVGADHGDINTTVEAYAALRSMGYAADMPIMAKSAAWIQQKGGLRNVRVFTRYWLALIGEWPWDKTPNLPPEIIWLPDNFIFSIYNFAQWARATMMPLTILSARRPSRPLLPENRLDGLFPEGRENFDYELPKKGEEDLWGRFFRAADKGLHSLQSFPVRRFVPREAAIRHVIEWIIRHQDADGGWGGSQPPWIYGLMALSVEGYPLHHPVLAKAMDALNDPGWRRDKGDASWIQASNSPVWDTMLAVLALHDAGAEDRYSPQMDKAIGWLLDRQVRVKGDWSIKLPDTEPGGWAFEYANDKYPDTDDTAVALIALAGCRHRPEWRERDIEGAISRGVNWLLAMQSSSGGWGAFDKDNNRSILTKIPFCDFGEALDPPSVDVTAHVLEAFGLLGISRNHPSVQKALAYIRSEQERNGAWFGRWGVNYVYGTGAVLPALAAIGEDMTQPYIVRACDWLMSVQQENGGWGESCASYMDINAVGHGVATASQTAWALIGLLAAKRPKDREAIARGCQFLIERQEDGSWTEEEYTGTGFPGYGVGQAIKLDDPSLPDRLLQGAELSRAFMLRYDLYRQYFPVMALSRARRMMKEDASAAA
modifications: Gluconobacter morbifer
Fold improvement (sclareolide production) [1]: 7.4 Fold
Fold improvements (sclareolide production): 28.4 Fold

B5: V45L + Q54E + I278T + T326S: GmSHC variant, first mutant enzyme which showed formation of sclareolide (protein)
chain: MSPADISTKSSSFQRLDNMLPEAVSSACDWLIDQQKPDGHWVGPLESNACMEAEWCLALWFLGQEDHPLRPRLAQALLEMQREDGSWGIYVGADHGDINTTVEAYAALRSMGYAADMPIMAKSAAWIQQKGGLRNVRVFTRYWLALIGEWPWDKTPNLPPEIIWLPDNFIFSIYNFAQWARATMMPLTILSARRPSRPLLPENRLDGLFPEGRENFDYELPVKGEEDLWGRFFRAADKGLHSLQSFPVRRFVPREAAIRHVIEWIIRHQDADGGWGGTQPPWIYGLMALSVEGYPLHHPVLAKAMDALNDPGWRRDKGDASWIQASNSPVWDTMLAVLALHDAGAEDRYSPQMDKAIGWLLDRQVRVKGDWSIKLPDTEPGGWAFEYANDKYPDTDDTAVALIALAGCRHRPEWRERDIEGAISRGVNWLLAMQSSSGGWGAFDKDNNRSILTKIPFCDFGEALDPPSVDVTAHVLEAFGLLGISRNHPSVQKALAYIRSEQERNGAWFGRWGVNYVYGTGAVLPALAAIGEDMTQPYIVRACDWLMSVQQENGGWGESCASYMDINAVGHGVATASQTAWALIGLLAAKRPKDREAIARGCQFLIERQEDGSWTEEEYTGTGFPGYGVGQAIKLDDPSLPDRLLQGAELSRAFMLRYDLYRQYFPVMALSRARRMMKEDASAAA
Fold improvement (sclareolide production) [1]: -0- Fold
Fold improvements (sclareolide production): 0 Fold

B6: V45L + Q54E + V222R + I278T + T326S: GmSHC variant with these substitutions relative to SEQ ID NO: 2 (protein)
chain: MSPADISTKSSSFQRLDNMLPEAVSSACDWLIDQQKPDGHWVGPLESNACMEAEWCLALWFLGQEDHPLRPRLAQALLEMQREDGSWGIYVGADHGDINTTVEAYAALRSMGYAADMPIMAKSAAWIQQKGGLRNVRVFTRYWLALIGEWPWDKTPNLPPEIIWLPDNFIFSIYNFAQWARATMMPLTILSARRPSRPLLPENRLDGLFPEGRENFDYELPRKGEEDLWGRFFRAADKGLHSLQSFPVRRFVPREAAIRHVIEWIIRHQDADGGWGGTQPPWIYGLMALSVEGYPLHHPVLAKAMDALNDPGWRRDKGDASWIQASNSPVWDTMLAVLALHDAGAEDRYSPQMDKAIGWLLDRQVRVKGDWSIKLPDTEPGGWAFEYANDKYPDTDDTAVALIALAGCRHRPEWRERDIEGAISRGVNWLLAMQSSSGGWGAFDKDNNRSILTKIPFCDFGEALDPPSVDVTAHVLEAFGLLGISRNHPSVQKALAYIRSEQERNGAWFGRWGVNYVYGTGAVLPALAAIGEDMTQPYIVRACDWLMSVQQENGGWGESCASYMDINAVGHGVATASQTAWALIGLLAAKRPKDREAIARGCQFLIERQEDGSWTEEEYTGTGFPGYGVGQAIKLDDPSLPDRLLQGAELSRAFMLRYDLYRQYFPVMALSRARRMMKEDASAAA
modifications: Gluconobacter morbifer
Fold improvement (sclareolide production) [1]: 4.2 Fold
Fold improvements (sclareolide production): 27 Fold
